Data from patent publication US20150160219.

Experiments:
[1] = tested on: Indicator molecule of Example 2 (peptide with one MMP9 cleavage site, first capture region ALP, terminal biotin via polyethylene glycol spacer)
[2] = tested on: Indicator molecule of Example 4 with 2 MMP9 cleavage sites (ALP first capture region, terminal biotin via PEG)
[3] = tested on: Indicator molecule of Example 5 with 3 MMP9 cleavage sites (terminal biotin, DNP, FITC)
[4] = tested on: Indicator molecule of Example 4 with 7 MMP9 cleavage sites (ALP first capture region, terminal biotin via PEG)
[5] = tested on: Indicator molecule of Example 4 with 3 MMP9 cleavage sites (ALP first capture region, terminal biotin via PEG)
[6] = tested on: Indicator molecule of Example 4 with 5 MMP9 cleavage sites (ALP first capture region, terminal biotin via PEG)
[7] = tested on: Indicator molecule of Example 3 (synthetic peptide with MMP-9 sequence, HNE sequence, DNP, fluorescent label and terminal biotin via PEG)
[8] = tested on: Indicator molecule of Example 5 with 2 MMP9 cleavage sites (terminal biotin, DNP, FITC)
[9] = tested on: Indicator molecule of Example 5 with 4 MMP9 cleavage sites (terminal biotin, DNP, FITC)

Sequence of Matrix Metalloprotease-9 (MMP-9) (Mologic) (chain, as listed by the source): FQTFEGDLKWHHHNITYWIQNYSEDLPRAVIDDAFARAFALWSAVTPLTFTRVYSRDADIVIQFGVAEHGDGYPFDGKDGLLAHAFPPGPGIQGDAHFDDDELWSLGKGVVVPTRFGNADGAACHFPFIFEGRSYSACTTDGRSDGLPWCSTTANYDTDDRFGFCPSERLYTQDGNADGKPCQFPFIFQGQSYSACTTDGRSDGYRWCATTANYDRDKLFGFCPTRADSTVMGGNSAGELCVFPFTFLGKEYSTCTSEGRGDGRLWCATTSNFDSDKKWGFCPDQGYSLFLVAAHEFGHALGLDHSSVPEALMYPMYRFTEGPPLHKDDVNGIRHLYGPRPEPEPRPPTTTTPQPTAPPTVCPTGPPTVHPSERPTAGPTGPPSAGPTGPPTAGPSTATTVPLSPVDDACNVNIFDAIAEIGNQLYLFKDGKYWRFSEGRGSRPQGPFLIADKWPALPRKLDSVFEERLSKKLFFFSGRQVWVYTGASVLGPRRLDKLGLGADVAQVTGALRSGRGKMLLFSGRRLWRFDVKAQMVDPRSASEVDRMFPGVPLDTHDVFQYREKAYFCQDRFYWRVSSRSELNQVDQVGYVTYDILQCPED

“Matrix Metalloprotease-9 (MMP-9) (Mologic)” was tested, and the “detectable limit of the lateral flow cleavage assay” value [1] was “approximately 250-500 ng/ml”, the “sensitivity of the assay” value [1] was 250-500 ng/ml MMP9, seen with an indicator molecule having 1 cleavage site and the test line signal at 31.25 ng/ml MMP9 [1] was 0 reader units. For the same substance, the test line signal at 62.5 ng/ml MMP9 [1] was 0 reader units, the test line signal at 125 ng/ml MMP9 [1] was 0 reader units and the test line signal at 250 ng/ml MMP9 [1] was 0 reader units. The test line signal at 500 ng/ml MMP9 [1] was 1.93 reader units, the test line signal at 1000 ng/ml MMP9 [1] was 4.52 reader units and the test line signal at 2000 ng/ml MMP9 [1] was 8 reader units. For the same substance, the test line signal at 31.25 ng/ml MMP9 [2] was 0.68 reader units, the test line signal at 62.5 ng/ml MMP9 [2] was 0.32 reader units and the test line signal at 125 ng/ml MMP9 [2] was 0.57 reader units. It also gave a test line signal at 250 ng/ml MMP9 [2] of 1.99 reader units, a test line signal at 500 ng/ml MMP9 [2] of 3.48 reader units and a test line signal at 1000 ng/ml MMP9 [2] of 12 reader units. The test line signal at 2000 ng/ml MMP9 [2] was 11.8 reader units, the “cut-off of the assay” value [3] was “The cut-off with all indicator molecules was below <31.25 ng/ml” and the test line signal at 31.25 ng/ml MMP9 [3] was 1.45 reader units. For the same substance, the test line signal at 62.5 ng/ml MMP9 [3] was 2.56 reader units, the test line signal at 125 ng/ml MMP9 [3] was 3.1 reader units and the test line signal at 250 ng/ml MMP9 [3] was 5.58 reader units. It also gave a test line signal at 500 ng/ml MMP9 [3] of 9.04 reader units, a test line signal at 1000 ng/ml MMP9 [3] of 11.6 reader units and a test line signal at 2000 ng/ml MMP9 [3] of 17.9 reader units. For the same substance, the “sensitivity of the assay” value [4] was <31.25 ng/ml for an indicator molecule having 7 cleavage sites, the test line signal at 31.25 ng/ml MMP9 [4] was 2.27 reader units and the test line signal at 62.5 ng/ml MMP9 [4] was 2.81 reader units. It also gave a test line signal at 125 ng/ml MMP9 [4] of 3.25 reader units, a test line signal at 250 ng/ml MMP9 [4] of 6.19 reader units and a test line signal at 500 ng/ml MMP9 [4] of 9.31 reader units. For the same substance, the test line signal at 1000 ng/ml MMP9 [4] was 21.3 reader units, the test line signal at 2000 ng/ml MMP9 [4] was 25.3 reader units and the test line signal at 31.25 ng/ml MMP9 [5] was 0 reader units. For the same substance, the test line signal at 62.5 ng/ml MMP9 [5] was 0 reader units, the test line signal at 125 ng/ml MMP9 [5] was 0 reader units and the test line signal at 250 ng/ml MMP9 [5] was 0.92 reader units. It also gave a test line signal at 500 ng/ml MMP9 [5] of 3.84 reader units, a test line signal at 1000 ng/ml MMP9 [5] of 7.57 reader units and a test line signal at 2000 ng/ml MMP9 [5] of 10.5 reader units. For the same substance, the test line signal at 31.25 ng/ml MMP9 [6] was 1.04 reader units, the test line signal at 62.5 ng/ml MMP9 [6] was 1.36 reader units and the test line signal at 125 ng/ml MMP9 [6] was 2.14 reader units. The test line signal at 250 ng/ml MMP9 [6] was 5.01 reader units, the test line signal at 500 ng/ml MMP9 [6] was 9.93 reader units and the test line signal at 1000 ng/ml MMP9 [6] was 16.8 reader units. For the same substance, the test line signal at 2000 ng/ml MMP9 [6] was 20.5 reader units, the “cut-off of the assay” value [7] was “The cut-off with all indicator molecules was below <31.25 ng/ml” and the “detectable limit of the lateral flow cleavage assay” value [7] was “approximately 125-250 ng/ml”. It also gave a test line signal at 31.25 ng/ml MMP9 [7] of 1.37 reader units, a test line signal at 62.5 ng/ml MMP9 [7] of 1.28 reader units and a test line signal at 125 ng/ml MMP9 [7] of 2.01 reader units. It also gave a test line signal at 250 ng/ml MMP9 [7] of 3.34 reader units, a test line signal at 500 ng/ml MMP9 [7] of 3.73 reader units and a test line signal at 1000 ng/ml MMP9 [7] of 4.33 reader units. The test line signal at 2000 ng/ml MMP9 [7] was 8.7 reader units, the “cut-off of the assay” value [8] was “The cut-off with all indicator molecules was below <31.25 ng/ml” and the test line signal at 31.25 ng/ml MMP9 [8] was 1.36 reader units. The test line signal at 62.5 ng/ml MMP9 [8] was 1.78 reader units, the test line signal at 125 ng/ml MMP9 [8] was 3.46 reader units and the test line signal at 250 ng/ml MMP9 [8] was 5.44 reader units. It also gave a test line signal at 500 ng/ml MMP9 [8] of 6.87 reader units, a test line signal at 1000 ng/ml MMP9 [8] of 5.48 reader units and a test line signal at 2000 ng/ml MMP9 [8] of 12.8 reader units. For the same substance, the “cut-off of the assay” value [9] was “The cut-off with all indicator molecules was below <31.25 ng/ml”, the test line signal at 31.25 ng/ml MMP9 [9] was 2.69 reader units and the test line signal at 62.5 ng/ml MMP9 [9] was 2.94 reader units. For the same substance, the test line signal at 125 ng/ml MMP9 [9] was 5.63 reader units, the test line signal at 250 ng/ml MMP9 [9] was 10.1 reader units and the test line signal at 500 ng/ml MMP9 [9] was 11.2 reader units. For the same substance, the test line signal at 1000 ng/ml MMP9 [9] was 16.3 reader units and the test line signal at 2000 ng/ml MMP9 [9] was 16.2 reader units.
